Tests used:
[1] = molecular target: ARC40-GFP bait (S. cerevisiae ARC40, member of the Arp2/3 complex, fused with a C-terminal GFP epitope tag) (Saccharomyces cerevisiae) (UniProt P38328); assay: in vivo mRNA display co-purification, pooled yeast library, anti-GFP bead IP of ARC40-GFP, NGS read-out
[2] = molecular target: ARC40-GFP bait (S. cerevisiae ARC40, member of the Arp2/3 complex, fused with a C-terminal GFP epitope tag) (Saccharomyces cerevisiae) (UniProt P38328); assay: low-throughput in vivo mRNA display co-purification, individually cloned ORFs, anti-GFP bead IP of ARC40-GFP

in vivo mRNA display library protein ARC18 (MCP-ARC18 fusion with purification tag) (from UniProt Q05933 1-178)
Display Score [1]: 3.3

in vivo mRNA display library protein ARC19 (MCP-ARC19 fusion with purification tag) (from UniProt P33204 1-171)
Display Score [1]: 3.9

in vivo mRNA display library protein ARC35 (MCP-ARC35 fusion with purification tag) (from UniProt P53731 1-342)
Display Score [1]: 3.7

in vivo mRNA display library protein ARP2 (MCP-ARP2 fusion with purification tag) (from UniProt P32381 1-391)
Display Score [2]: 1.8 | Display Score [1]: 0.55

in vivo mRNA display protein MYO3 (MCP-MYO3 fusion, individually cloned for the low-throughput experiment) (from UniProt P36006 1-1272)
Display Score [2]: 1.9

From patent publication US20230125614A1
